In assay [1] the target is T1, fibrin (Homo sapiens, UniProt P02671).
T1 construct: purchased Enzyme Research Laboratories (South Bend, Ind.); host or cells: fibrin generated in the well or tube from the purchased fibrinogen with bovine thrombin
T1 sequence (P02671 36-629): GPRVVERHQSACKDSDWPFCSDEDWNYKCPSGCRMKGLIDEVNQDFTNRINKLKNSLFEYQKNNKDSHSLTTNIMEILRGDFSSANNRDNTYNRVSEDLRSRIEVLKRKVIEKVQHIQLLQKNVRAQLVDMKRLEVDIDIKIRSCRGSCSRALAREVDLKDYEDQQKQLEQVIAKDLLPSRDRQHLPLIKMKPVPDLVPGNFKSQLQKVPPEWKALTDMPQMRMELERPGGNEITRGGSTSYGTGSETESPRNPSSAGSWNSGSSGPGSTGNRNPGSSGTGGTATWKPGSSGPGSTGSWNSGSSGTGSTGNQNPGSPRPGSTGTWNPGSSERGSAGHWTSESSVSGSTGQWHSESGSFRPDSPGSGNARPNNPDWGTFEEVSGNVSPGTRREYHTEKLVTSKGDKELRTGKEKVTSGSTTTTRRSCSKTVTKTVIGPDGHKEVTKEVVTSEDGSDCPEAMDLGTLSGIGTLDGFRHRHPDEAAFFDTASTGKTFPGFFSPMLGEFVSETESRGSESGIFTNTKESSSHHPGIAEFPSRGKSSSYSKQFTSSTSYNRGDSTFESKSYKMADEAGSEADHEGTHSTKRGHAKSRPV
T1 sequence (P02675 45-491 partner): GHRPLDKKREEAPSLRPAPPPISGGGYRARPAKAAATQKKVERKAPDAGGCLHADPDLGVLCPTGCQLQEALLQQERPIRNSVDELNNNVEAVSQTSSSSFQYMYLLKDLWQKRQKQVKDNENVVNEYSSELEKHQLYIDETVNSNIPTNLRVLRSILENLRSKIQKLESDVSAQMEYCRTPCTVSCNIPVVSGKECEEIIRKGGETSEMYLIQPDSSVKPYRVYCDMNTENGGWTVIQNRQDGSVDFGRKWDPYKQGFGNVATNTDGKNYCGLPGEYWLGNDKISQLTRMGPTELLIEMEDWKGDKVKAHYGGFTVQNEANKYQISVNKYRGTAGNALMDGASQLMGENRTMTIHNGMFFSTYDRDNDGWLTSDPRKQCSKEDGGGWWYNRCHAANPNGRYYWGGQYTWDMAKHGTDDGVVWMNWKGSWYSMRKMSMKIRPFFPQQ
T1 sequence (P02679 27-437 isoform P02679-2 partner): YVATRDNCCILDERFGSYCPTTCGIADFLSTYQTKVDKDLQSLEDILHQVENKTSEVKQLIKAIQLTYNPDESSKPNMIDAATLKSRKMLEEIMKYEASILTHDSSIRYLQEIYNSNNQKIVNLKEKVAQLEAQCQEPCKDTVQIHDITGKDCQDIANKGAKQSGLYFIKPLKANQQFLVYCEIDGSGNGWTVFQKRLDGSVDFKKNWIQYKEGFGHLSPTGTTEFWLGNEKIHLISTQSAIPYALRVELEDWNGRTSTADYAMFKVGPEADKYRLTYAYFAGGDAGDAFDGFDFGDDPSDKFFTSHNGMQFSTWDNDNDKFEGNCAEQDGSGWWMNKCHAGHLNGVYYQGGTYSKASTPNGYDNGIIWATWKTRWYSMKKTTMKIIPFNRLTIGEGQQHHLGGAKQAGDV
As to the kind of experiment: Factor XIIIa-mediated incorporation of FITC-labeled thymosin β4 into fibrin (spectrophotometric). In kind it is biochemical. The note with it: fibrinogen 9 μM, thymosin β4 30 μM, factor XIIIa with thrombin, 4 hours, 37° C. As for the experimental part:
(§1) Reactions of incorporation of FITC-labeled and unlabeled thymosin β4 into fibrinogen and fibrin were performed in Eppendorf tubes containing a mixture of fibrinogen at 3 mg/mL (9 μM) and thymosin β4 or FITC-labeled thymosin β4 at […] (30 μM) in 100 μL TBS with 2.5 mM CaCl2. The reactions were initiated by addition of FXIIIa(Ca) or FXIIIa(Thr) to final concentration of 30 μg/mL. The final concentration of thrombin in the FXIIIa(Thr)-containing mixtures was made at 2.5 NIH u/mL, sufficient to rapidly form fibrin clot which was observed visually. The reactions with FITC-labeled thymosin β4 lasted for 4 hours at 37° C. in the dark and were stopped by heat inactiviation of the enzymes in boiling water for 5 min during fibrinogen and fibrin denatured and precipitated. The pellets were centrifuged and washed 3 times in TBS and then solubilized. The amounts of fibrin(ogen) and FITC-labeled thymosin β4 in the solubilized pellet were determined spectrophotomertrically using absorption molar coefficients E280,1%=15.0 and ε495=72,000 M^−1cm^−1, respectively. To prepare samples with unlabeled thymosin β4 for analysis by SDS-PAGE and Western blot the reaction mixtures at the indicated time were heat-inactivated as above and solubilized by addition of sample buffer (Invitrogen) containing SDS and reducing agent.

Assay [2] has as its target T2, fibrinogen (Homo sapiens, UniProt P02671).
T2 construct: purchased Enzyme Research Laboratories (South Bend, Ind.)
T2 sequence (P02671 20-644 isoform P02671-2 limits assumed): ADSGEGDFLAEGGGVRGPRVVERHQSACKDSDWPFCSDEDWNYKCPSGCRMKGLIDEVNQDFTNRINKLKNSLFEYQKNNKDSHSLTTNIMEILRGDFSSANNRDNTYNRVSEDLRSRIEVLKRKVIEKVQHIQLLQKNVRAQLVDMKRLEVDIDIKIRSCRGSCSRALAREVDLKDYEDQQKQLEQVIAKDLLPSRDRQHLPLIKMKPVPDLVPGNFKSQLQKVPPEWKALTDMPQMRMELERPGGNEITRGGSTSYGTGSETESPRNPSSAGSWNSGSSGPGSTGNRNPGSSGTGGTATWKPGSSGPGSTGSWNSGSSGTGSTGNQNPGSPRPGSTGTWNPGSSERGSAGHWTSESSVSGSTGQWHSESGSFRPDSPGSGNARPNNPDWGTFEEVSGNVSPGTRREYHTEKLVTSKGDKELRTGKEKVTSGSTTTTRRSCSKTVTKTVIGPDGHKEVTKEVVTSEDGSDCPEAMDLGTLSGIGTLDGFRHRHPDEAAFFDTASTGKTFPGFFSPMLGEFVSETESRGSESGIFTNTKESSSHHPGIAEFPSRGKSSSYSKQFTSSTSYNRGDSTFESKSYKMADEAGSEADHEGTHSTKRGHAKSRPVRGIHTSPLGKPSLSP
T2 sequence (P02675 31-491 partner): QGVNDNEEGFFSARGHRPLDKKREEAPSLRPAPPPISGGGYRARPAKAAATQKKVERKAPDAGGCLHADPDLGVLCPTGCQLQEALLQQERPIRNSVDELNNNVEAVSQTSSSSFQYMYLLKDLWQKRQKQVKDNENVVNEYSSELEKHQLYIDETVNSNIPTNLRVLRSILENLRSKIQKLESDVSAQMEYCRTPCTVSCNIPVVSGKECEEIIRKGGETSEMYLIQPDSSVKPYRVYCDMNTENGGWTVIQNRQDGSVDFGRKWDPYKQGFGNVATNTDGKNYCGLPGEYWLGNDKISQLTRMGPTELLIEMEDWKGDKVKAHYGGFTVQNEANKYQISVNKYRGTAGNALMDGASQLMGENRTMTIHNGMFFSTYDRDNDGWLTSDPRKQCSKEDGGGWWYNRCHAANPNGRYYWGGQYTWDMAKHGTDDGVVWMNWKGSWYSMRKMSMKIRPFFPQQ
T2 sequence (P02679 27-437 isoform P02679-2 partner limits assumed): T1 sequence (P02679 27-437 isoform P02679-2 partner)
As to the kind of experiment: Factor XIIIa-mediated incorporation of FITC-labeled thymosin β4 into fibrinogen (spectrophotometric). In kind it is biochemical. The note with it: fibrinogen 9 μM, thymosin β4 30 μM, factor XIIIa, 4 hours, 37° C. As for the experimental part:
as §1

As to “FITC-thymosin β4: Fluorescence labeled thymosin β4 prepared by reaction with fluorescein isothiocyanate; 0.9 mole of FITC per mole of thymosin β4 [reference compound]”, in assay [1], the “degree of incorporation into fibrin” value is reported as about 0.4 moles per mole. In addition, the “degree of incorporation into fibrinogen” value in assay [2] is given as “about 0.2 moles per mole”.

(Values after patent US20100204147A1, “Methods For Delivering Thymosin Beta 4, Analogues, Isoforms and Other Derivatives” (REGENERX BIOPHARMACEUTICALS, INC., priority 2003, published 2010).)
